# Experimental data reported in the nanobody polyreactivity screen of Harvey et al. (2022).
# Assay: yeast display, Sf9 membrane polyspecificity reagent, FACS + sequencing; frameworks hold sequencing errors
# Procedure, shortened: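 Nanobodies came from a synthetic yeast display library in Saccharomyces cerevisiae BJ5465, induced with galactose for 36–48 hours and stained for 1 hour at 4 °C with 10% biotinylated, detergent-solubilized Sf9 membrane reagent. Cells were enriched on streptavidin microbeads and then FACS-sorted, with low and high (top ~1%) gates set on anti-HA fluorescence for expression and streptavidin fluorescence for reagent binding. Each polyreactivity label reflects the gate a clone came from. Genes were amplified by colony PCR, sequenced by MiSeq 2 × 250 and filtered by CDR length.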
row,Sequence,polyreactivity (PSR sort gate)
1,QVQLVESGGGLVQAGGSLRLSCAASGFIFISNAMGWYRQAPGKERELVARISDTDRTHYADSVKGRFTISRDNAKNTVYLQMNSLKPEDTAVYYCATDQSLLDKVYYDVQYDYWGQGTQVTVSS,low polyreactivity
2,QVQLVQSGGGLVQAGGSLRLISAASGSIFRYNAMGWYRHAPGKEREFVAAITRSGGSTYADSVKGRFTISRDNAKNTLYLQIHSLKPEDTAVYYCAATFKWYSHSKPRFDYWGHGTQVTVSS,low polyreactivity
3,QVQLVESGGGLVQAGGSLRLSCAASGSTFTDYDMGWYRQAPGKERELVAAITSGGSTNYADSVKGRFTISRDNAKNTVYLQMISLKPEDTAVYYCAAADADRKYDYWGQGTQVTVSS,low polyreactivity
4,QVQLVESGGGLVQAGGSLRLSCAASGRTFRYYAMGWYRQAPGKERELVAAINRGGSTYYADSVKGRFTISRDNAKNTVYLQMNSLKPEDTAVYYCNTARGSKDPPHYYWGQGSQVTVSS,high polyreactivity
5,QVQLVESGGGLVQAGGSLRLSCAASGITFRGNVMGWYRQAPGKERELVAAISGSSGRTYYADSVKGRFTISRDNAKNTVYLQMNSLKPEDTAVYYCAAYYGTKYDYWGQGTQVTVSS,high polyreactivity
6,QVQLVESGGGLVQAGGSLRLSCAASGRIFYRYAMGWYRQAPGKERELVAAITIGGRTNYADSVKGRFTISRDNAKNTVYLQMNSLKPEDTAVYYCAVVLYTRYPPRVRYYYWGQGTQVTVSS,high polyreactivity
7,QVQLVESGGGLVQAGGSLRLSCAASGFIFDVYAMGWYRQAPGKERELVAAITSGDGTNYADSVKGRFTISRDNAKNTVYLQMNSLKPEDTAVYYCAADDGVTYRGIIFSYWGQGTQVTVSS,low polyreactivity
8,QVQLVESGGGLVQAGGSLRLSCAASGSTFVSNAMGWYRQAPGKESELVAAISSSGGRTSYADSVKGRFTISRDHANNTVYLQMNSLKPEDTAVYYCNTLVVPYTDFKTSYNVDYWGQGTQVTVSS,low polyreactivity
9,QVQLVESGGGLVQAGGSLRLSCAASGRIFKVYAMGWYRQAPGKERELVATISRGGSTYYADSVKGRFTISRDNAKNTVYLQMNSLKPEDTAVYYCATQRERYYWFGAWSYDYWGQGTQVTVSS,low polyreactivity
10,QVQLVESGGGLVQAGGSLRLICAASGRTFPGYAMGWYRPAPGKDRELVAAISNSGGRTYYADSVKGRFTISRDNAKKTVYLQMTSLKREDTAVYYCNATTDNGSNKRYYYWGQGTQVTVSS,high polyreactivity
11,QVHLVESGGGLVQAGGSLPLSCAASGIIFGGYDMGWYRPAPGIERELVAAISWSGGSTYYADSVKGRFTISRDNAKNTVYLPMNSLKPEDTAVYYCAAAYYAPTRVYYYWGQGTQVTVSS,low polyreactivity
12,QVQLVESGGGLVQAGGSLRLSCAASGRIFRTYAMGWYRQAPGKERELVAAIRSGGSTKYADSVKGRFTISRDNAKNTVYLQMNSLKPEDTAVYYCAAAVLGRYSAGDGYWGQGTQVTVSS,low polyreactivity
13,QVQLVESGGGLVQAGGSLRLSCAASGGIFWFNAMGRYRQAPGKEREFVAAITWRGGSTYYADSVKGRFTISRDNAKNTVYLQMHSLKPEDTAVYYCAATYWWHRSSGWDRVEYWGQGTQVNVSS,high polyreactivity
14,QVQLVESGGGLVQAGGSLRLSCAASGFTFKYYVMGWSRQAPGKERELVASLSKRGGSTRYADSVKGRFTISRDNAKTTFYLQMHSLKPEDTAVYYCAAAFVRPPPYVGYSRFDYWGQGTQVTLSS,high polyreactivity
15,QGQLVESGGGLVQAGCSLRLSCAASGITYTPYALGWYRQAPGKAREFVASISVSGGSTYYADSVKGRFRFSRVNAKNTVYLEMNCLKPEDTAVYYCNAVSYRKHYFNSLYGYWGLGTQVTVSS,high polyreactivity
16,QFQLVESGGGLVQAGASLRLSCAASGSIFDLNALGWYRQAPGKDRELVAAITRDSGITYYADSVKGRFKISRDNAKNTVYLQMNSLKPEDTAVYYCAADADSSSGDSWGQGTQVTVSS,low polyreactivity
17,QVQLVESGGGLVQAGGSLRLSCAASGSTFAGYAMGWYRQAPGKERELVATITYSGGSTYYADSVKGRFTISRDNAKNTVYLQKNSLKPEDTAVYYCAKKASYWWGYEYWGQGTQVTVSS,low polyreactivity
18,QVQLVESGGGLVQAGGSLRLSCAASGFTFYGYAMGWYRQAPGKERELVAAISSRGSRTYYADSVKGRFTISRDNAKNTGYLQMNSLKPEDTAFYYCAVDKAITQGLYDYWGQGTQVTVSS,high polyreactivity
19,QVQLVESGGGLVQAGGSLSLSCAASGRTLIRNAMGWYRQAPGKGRELVAAINSGGITNYADSVKGRFTISRDNAKNTVYLQMNSLKPEDTAVYYCNDRQVLYGLYLRAYPYEYWGQGTQVTVSS,low polyreactivity
20,QVQLVESGGGLVQAGGSLRLSCAASGSIFDYKAMGWYRQAPGKERELVAAIDSSDTGTYYADSVKGRFTISRDNAKNTVYLQMNSLKPEDTAVYYCAAEYGWWEGSTTYLRYDYWGQGTQVTVSS,low polyreactivity
21,QVQLVESGGGLVQAGGSLRLSCAASGRIFYPYAMGWYIQAPGKEREFVATIRARCGDSTSYADSVKGRFTISRDIAKNTVYLQMNSLKPEDTAVYYCAALFYTYRWRYYVYHMDYWGQGTQVTVSS,low polyreactivity
22,QVQLVESGGGLVQAGGSLRLSCAASGSIFIGYAMGWYRQAPGKERELVASIRNGGSTNYADSVKGRFTISRDNAKNTVYLQMNSLKPEDTAVYYCAGRYPVFLVSFGFDYWGQGTQVTVSS,low polyreactivity

row,Sequence,polyreactivity (PSR sort gate)
1,QVQLVESVGGLVQAGGSLRLSCAPSGRTFYIYAMGRYRQAPGKERELVAAISISGSTYYADSVKGRFTISRDNAKNTVYLQMNSLKPEDTAVYYCAADYLDSTYGYVYGWDDYLGQGTQVTVSS,low polyreactivity
2,QVQLVESGGGLVQAGGSLRLSCAASGFIISPYARGWYRQAPGKETELVAAISWSGVSTYYADSVKGRFTMSRDNAKNTVYLQMNSLNPEDTAVYYCAADPYCVKYRYGDDYWGQGTQVTVSS,high polyreactivity
3,QVQLVESGGGLVQAGGSLRLSCAASGSTFKYYAMGWYRQAPGKERELVATITRRSGSTYYADSVKGRFTISRDNAKNTVYLQMNSLKPEDTAVYYCNAYGPYKYNYWGQGTQVTVSS,high polyreactivity
4,QVQLVESGGGLVQAGGSLRLSCAASGRTFGINAMGWYRQAPGKERELVAVISFGDGGTYYADSVKGRFTISRDNAKNTVYLQMNSLKPEDSAVYYCAAEVVAQMNYWGQGTQVTVSS,low polyreactivity
5,QVQLVESGGGLVQAGGSLRLSCAASGFIFGRYAMGWYRQAPGKERELVAAITYSSGSTYYADSVKGRFTISRDNAKNTVYLQMNSLKPEDTAVYYCNAEFWYETLYEYDYWGQGTQVTVSS,high polyreactivity
6,QVQLVESGGGLVQAGGSLRLSCAASGITFHRNAMGWYRQAPGKERELVAAITRGGSTYYADSVKGRFTISRDNAKNTVYLQMNSLKPEDTAVYYCNAYYWFGPGRDYWGQGTQVTVSS,high polyreactivity
7,QVQLVESGGGLVQAGGSLRLSCAASGRIFYSYAMGWYRQAPGKERELVAAIRRGGSTNYADSVKGRFTISRDNAKKTVYLQMNSLKPEDTAVYYCAAKGYKGYFLYNYWGQGTQVTVSS,high polyreactivity
8,QVQLVVSGGGLVQAGGSLRLSCAASGRTFYANAMGWYRQAPGKERELVAAISTGGDGTYYADSVKGRFTISRDNAKNTVYLQMNSLKPEDTADYYCAVRHRASGILYDYWGQGTQVTVSS,low polyreactivity
9,QVQLVDSGGGLVQAGGSLLLSCAASGHTLYRNAMGWYRQAPGKERELVAAITSRGGSTFYADSVKGRFTISRDNAKNSVYLQMNCLQPEDTAVYYCNTARGTAPAHDYWGQGTQVTVSS,low polyreactivity
10,QVQLVESGGGLVQAGGSLRLSCAASGYIFVGNAMGWYRQAPGKERELVATIRSSTGNTYADSVKGRFTISRDNAKNTVYLQMNSLKPEDTAVYYCATVYELPGWGREYGYWGQGTQVTVSS,low polyreactivity
11,QVQLVESGGGLVQAGGSLRLSCAASGIFVRYAMGWYRQAPGKEREMVAAISFSDDSTYYADSVKGRFTISRDNAKNTVYLQMNSLKPEDTAVYYCNARLERTPCLYLYGSWGQVTQVTVSS,low polyreactivity
12,QVQLVESGGGLVQAGGSLRLSCAASGRTLGIYAMGWYIQAPGKERELVADISRDSSTYYADSVKGRFTISRDNAKNTVYLQMNSLKPEDTAVYYCNADQTPRDVTDWWYDYDYWGQGTQVTVSS,low polyreactivity
13,QVQLQESGSGLVQAGGSLRLSCAASGYISLGDNMGWYRQAPGKDREFGATISVGGITYYVDSVKGRFTISRDIAKNTVYLQMNSLTPEDTAVYYCAALEIYYFRYYYWGQGTQVTVSS,low polyreactivity
14,QVQLVESGGGLVQAGGSLRLSCAASGFIFYSYAMGWYRQAPGKERELVAAIDWDDGTTYYADSVKGRFTISRDNAKNTVYLQMNSLNPEDTAVYYCAAESYYGAYDYWGQGTQVTVSS,high polyreactivity
15,QVQLVESGGGLVQAGGSLRLICAASGSILYKYAMGWYRQAPGKERELVAAISSRGGNTYYADSVKGRFTISRDNSKNTVYLQMNSLKPEDTAVYYCAADLWAGKYGEYDYWGQGTQVTVSS,high polyreactivity
16,QVQLVESGGGLVQAGGSLRLSCAASGSIFRYYAMGWYRQAPGKERELVAAISSGDSTNYADSVKGRFTISRDNAKNTVYLQMNSLKPEDTAVYYCAAGVVRGPGYYRKYYYWGQGTQVTVSS,high polyreactivity
17,QVQLVESGGGLVQAGGSLRLSCASSGRIFGYYVRGWYRQAPGTERELVATISRVGTTNYADSVKGRFTISRDNAKNSVYLPMNSLKPEDTAVYYCNADYTGHRGGNDYWGQGTQVTVSS,low polyreactivity
18,QVQLVESGGGLVQAGGSLRLSCAASGRIFSYYAMGWYRQAPGKERELVATISGSGGSTYYADSVKGRFTISRDNAKNTVYLQMNSLKPEDTAVYYCAATGFIFRGRVRAIPRRYNYWGQGTQVTVSS,high polyreactivity
19,QVQLVESGGGLVQAGGRLRLSCAASGFTFIRSAMGWYRQAPGKERELVAAISWSDDTTYYADSVKGRFTISRDNAKNTVYLQMNSLKPEDTAVYYCAAEVWYSYAEYDYWGQGTQVTVSS,high polyreactivity
20,QVQLVESGGGLVLAGGSLRLSCAASGRIFRWYAMGWYRQAPGKERELDATISSTGGSTYYADSVKGRFTISRDNAKNTVYLQMNSLKPEDTAVYYCNAVVYGIFLYAWYDYWGQVTQVTVSS,low polyreactivity
21,QVQLVESGGGLVQAGGSLRLSCAASGSTFYVYAMGWYRQAPGKARELVAAIRSGGSTNYADSVKGRFTISRDNAKNTVYFQLNSLKPEDTAVYYCNADTWLYRYDYWGQGTQVTVSS,low polyreactivity
